# Measured values reported in patent US20260193679A1, “SYSTEMS AND METHODS FOR MODIFYING A POLYNUCLEOTIDE” (The Children's Medical Center Corporation, priority 2023, published 2026).
# Numbering of substitutions follows the chain as printed. Numbers in names are those of the source.
# B1: ATP1A1-Q118R_v2 epegRNA: synthetic epegRNA, SEQ ID NO: 7; three substitutions, optimized to evade MMR (nucleic acid)
# guide: GUUCCUCUUCUGUAGCAGCUGUUUUAGAGCUAGAAAUAGCAAGUUAAAAUAAGGCUAGUCCGUUAUCAACUUGAAAAAGUGGCACCGAGUCGGUGCUAGCAUCAGGGCUGCUACAGAAGAGCGCGGUUCUAUCUAGUUACGCGUUAAACCAACUAGAAUUU
# modifications: modified_base 1 OTHER; 2'-O-methyl modified nucleotide with phosphorothioate linkage; modified_base 2 OTHER; modified_base 3 OTHER; modified_base 158 OTHER; Nucleotide with phosphorothioate linkage; modified_base 159 OTHER; 2'-O-methyl modified nucleotide with phosphorothio
# notes: three substitutions, optimized to evade MMR
# B2: v3 epegRNA: synthetic epegRNA, SEQ ID NO: 8; four substitutions (+3 TTGG to CCTA) (nucleic acid)
# guide: B1 guide with C103U
# modifications: modified_base 1 OTHER; 2'-O-methyl modified nucleotide with phosphorothioate linkage; modified_base 2 OTHER; modified_base 3 OTHER; modified_base 158 OTHER; Nucleotide with phosphorothioate linkage; modified_base 159 OTHER; 2'-O-methyl modified nucleotide with phosphorothio
# B3: original B2M epegRNA: synthetic epegRNA to knockout B2M, single nucleotide substitution; SEQ ID NO: 12 (nucleic acid)
# guide: GAGUAGCGCGAGCACAGCUAGUUUUAGAGCUAGAAAUAGCAAGUUAAAAUAAGGCUAGUCCGUUAUCAACUUGAAAAAGUGGCACCGAGUCGGUGCUCCGUGGCCUGAGCUGUGCUCGCGCCGCGGUUCUAUCUAGUUACGCGUUAAACCAACUAGAAUUU
# modifications: modified_base 1 OTHER; 2'-O-methyl modified nucleotide with phosphorothioate linkage; modified_base 2 OTHER; modified_base 3 OTHER; modified_base 158 OTHER; Nucleotide with phosphorothioate linkage; modified_base 159 OTHER; 2'-O-methyl modified nucleotide with phosphorothio
# Key:
# ATP1A1 = assay: Prime editing at ATP1A1 (Q118R) in CD34+ HSPCs; PE and indels quantified by BEAT/TIDE (Sanger) or CRISPResso2 (amplicon sequencing); type: cell-based, human; conditions: for PE2max efficiency: compared to two substitutions (v1), no nicking sgRNA
# B2M = assay: Prime editing at B2M in CD34+ HSPCs; type: cell-based, human; conditions: PE2max; average, three donors; amplicon sequencing
# From the text: FIGS. 6A-6D provide schematics and plots showing that modulation of nucleotide metabolism positively interacts with MMR evasion. (FIG. 6A) PE and indel quantification as determined by CRISPResso2 analysis from amplicon sequencing. The MMR evasion strategy based on the installation of additional silent mutations and the epegRNAs used to target the ATP1A1 locus are illustrated. Point mutations are illustrated in orange. 2.5×10^5 HSPCs were electroporated with PE2max RNAs targeting ATP1A1 and cultured in the presence or absence of 50 μM each dN and 25× in-house Vpx VLPs. Genomic DNA was harvested 3 days post-nucleofection. Data are plotted as mean±SEM from n=3 independent biological replicates performed with CD34^+ HSPCs from three different donors. (FIG. 6B) Same as in (FIG. 6A), but HSPCs were electroporated with Vpx mRNA and PE2max RNAs targeting B2M. Data are plotted as mean±SEM from n=3 independent biological replicates performed with CD34^+ HSPCs from three different donors. (FIG. 6C) Same as in (FIG. 6B), but HSPCs were electroporated with Vpx mRNA and PE3max RNAs targeting the HBG1/HBG2 promoters. […]
# FIGS. 10A-10C provide a schematic and plots showing that modulation of nucleotide metabolism positively interacts with MMR-evading epegRNAs in quiescent HSPCs. […] (FIG. 10B) PE and indels quantification as determined by BEAT and TIDE analysis from Sanger sequencing. […]
molecule,measurement,setting,value
"PE2: first-generation prime editor mRNA, SEQ ID NO: 67 [reference compound]",frequency of alleles harboring the ATP1A1-Q118R mutation,"ATP1A1; PE2 mRNA + epegRNA/nicking sgRNA, absence of VPX VLPs, average, two donors, Sanger sequencing",17%
"PEmax: PEmax prime editor mRNA, SEQ ID NO: 68 [reference compound]","basal level of editing, ATP1A1-Q118R allele frequency","ATP1A1; PEmax mRNA (PE3max RNAs), no dNs, average, three donors",41%
B1,PE2max efficiency,ATP1A1,marked increase
same,level of improvement by Vpx mRNA co-delivery and dN supplementation,"ATP1A1; quiescent HSPCs, compared with HBB and B2M epegRNAs",highest level of improvement
B2,precise prime editing allele frequency,"ATP1A1; PE2max, without Vpx VLPs and dNs, average, amplicon sequencing",20.1%
same,PE2max efficiency,ATP1A1,marked increase
B3,PE efficiency,B2M,2%
